Results on 30 sequences are retold here after the supplement of paper PMC9170038.

The test system of series [1] is MS2 coat protein. Kind of series: apparent KD of MS2 coat protein, switch ON state; designed switch direction (-1 OFF switch, 1 ON switch): -1; higher = weaker reporter binding. The note with it: FMN input: 0 or 200 uM; Eterna round: R93 (includes R88 designs). An outline of the steps: (§1)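 Titration buffer: 100 mM Tris-HCl pH 7.5, 80 mM KCl, 4 mM MgCl2, without or with constant ligand. Designed RNA switches transcribed on-chip from Illumina sequencing clusters received SNAP-549-labelled MS2 coat protein in twofold steps from 0.7 or 1.5 nM to 3 µM. Apparent KD is the median per design of fits to normalised cluster binding curves.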

Series [2] has as its system MS2 coat protein. Kind of series: apparent KD of MS2 coat protein, switch OFF state (with FMN for OFF switches, without FMN for ON switches); designed switch direction (-1 OFF switch, 1 ON switch): -1; higher = weaker reporter binding. The note with it: FMN input: 0 or 200 uM; Eterna round: R93 (includes R88 designs). The essentials: as §1

On to “AAAAAACAUGAGGAUCACCCAUGUAAGGAUAUCUAAAAUAAAAGAAAAAUAAAGAAAAGGAGAAGGUAUAUGAA [JL wbt mod 20]”, for which the “apparent KD of MS2 coat protein” value in the series on MS2 coat protein [1] worked out at 19.8 nM; with MS2 coat protein [2] it was 25.7 nM.

On to “AAAAAACAUGAGGAUCACCCAUGUAAGGAUAUGCUCGAAAGUGCGAAAGCACAAACGAGCAGAAGGUACAAAAA [66%, Wbt, 45]”, for which the “apparent KD of MS2 coat protein” value with MS2 coat protein [1] is 34.7 nM; in the series with MS2 coat protein [2], 51.9 nM.

On to “AAAAAACAUGAGGAUCACCCAUGUAAGGAUAUGCUGAAAAACACUGGAAAACAGUGCAGCAGAAGGUACAAAAA [66%, Wbt, 34]”, for which the “apparent KD of MS2 coat protein” value was 21.1 nM in the series with MS2 coat protein [1] and 36.1 nM in the series with MS2 coat protein [2].

For “AAAAAACAUGAGGAUCACCCAUGUAAGGAUAUGUAAAAUAAAAGAAAAAUAAAGAAAAGCAGAAGGUACAUGGA [JL wbt mod 15]”, the “apparent KD of MS2 coat protein” value was 54.9 nM with MS2 coat protein [1] and 91.1 nM with MS2 coat protein [2].

For “AAAAAACAUGAGGAUCACCCAUGUCAGGAUAUCGAAAAAUAAAUAAAAAUAAAAUAAACGAGAAGGGACAAAAA [May 11]”, the “apparent KD of MS2 coat protein” value with MS2 coat protein [1] came to 39.8 nM; in the series on MS2 coat protein [2] it was 44.7 nM.

Regarding “AAAAAACAUGAGGAUCACCCAUGUCAGGAUAUCGAAAGAAAAAAAAAGAAAGAAAAAACGAGAAGGGACAAAAA [Amethyst 29]”, the entries for the “apparent KD of MS2 coat protein” value in the series on MS2 coat protein [1] and in the series on MS2 coat protein [2] were 20.1 nM and 33.1 nM, respectively.

For “AAAAAACAUGAGGAUCACCCAUGUGAGGAUAUCCAAAAGUUAAAGAAAAAGACGAAAAGGAGAAGGCGCAAAAA [Fiskers Exclusion D3]”, the “apparent KD of MS2 coat protein” value in the series with MS2 coat protein [1] was found to be 68.7 nM; in the series on MS2 coat protein [2], 40.7 nM.

For “AAAAAACAUGAGGAUCACCCAUGUGAGGAUAUCCUAAAAAAAAAAAAAAAAAAAAAAAGGAGAAGGCACAUAAA [EXCLS-II]”, the figures for the “apparent KD of MS2 coat protein” value with MS2 coat protein [1] and in the series on MS2 coat protein [2] were 47.6 nM and 64.8 nM, respectively.

Consider “AAAAAACAUGAGGAUCACCCAUGUGAGGAUAUCCUGGUUGAAAAAAAAAAAACAACCAGGAGAAGGCACAAAAA [EXCL-I]”, for which the “apparent KD of MS2 coat protein” value with MS2 coat protein [1] was 45.2 nM; in the series on MS2 coat protein [2], 57.8 nM.

Consider “AAAAAACAUGAGGAUCACCCAUGUGAGGAUAUGAUGCGAAUAAAGAAAGAAGAAAGCAUCAGAAGGCACAUAUG [Mod of Disincluded 3 (little more stable fmn state)]”, for which the figures for the “apparent KD of MS2 coat protein” value in the series with MS2 coat protein [1] and with MS2 coat protein [2] were 39.5 nM and 234 nM, respectively.

With “AAAAAACAUGAGGAUCACCCAUGUGAGGAUAUGCAAAACCCAUAUAAAAAGGGAAAAAGUAGAAGGCGCAAAAA [wbt round 1 mod 9]”, the “apparent KD of MS2 coat protein” value in the series with MS2 coat protein [1] was found to be 20.5 nM; in the series on MS2 coat protein [2], 17.4 nM.

In the case of “AAAAAACAUGAGGAUCACCCAUGUGAGGAUAUGCAGCGAAUAAAGAAAGAAGAAAGCAGCAGAAGGCACACCAA [Amethyst 78]”, the “apparent KD of MS2 coat protein” value stood at 26.4 nM with MS2 coat protein [1] and 44.1 nM in the series on MS2 coat protein [2].

As for “AAAAAACAUGAGGAUCACCCAUGUGAGGAUAUGCUAUGGAAAUAAAAAAUAAAACAUAGCAGAAGGCACACCAA [Mat - Exclusion 1 - Eli mod - D44]”, the results for the “apparent KD of MS2 coat protein” value in the series on MS2 coat protein [1] and in the series on MS2 coat protein [2] were 31 nM and 42.9 nM, respectively.

Regarding “AAAAAACAUGAGGAUCACCCAUGUGAGGAUAUGUACGAAAUAAAAUAAAAAUAAAAGUACAGAAGGCACAAAAA [Mat - Exclusion 1 - Eli mod - D4]”, the “apparent KD of MS2 coat protein” value is 40.2 nM in the series with MS2 coat protein [1] and 46.6 nM in the series on MS2 coat protein [2].

For “AAAAAACAUGAGGAUCACCCAUGUGAGGAUAUUGGUAUUCAAGAAACCCUCUUAAUAGCGAGAAGGCGCAAAAA [Brourd 613 Mod 18 - Jieux - Exclusion 1]”, the results for the “apparent KD of MS2 coat protein” value in the series on MS2 coat protein [1] and in the series on MS2 coat protein [2] were 22.2 nM and 19.8 nM, respectively.

Regarding “AAAAAGAGAGGAUAUACAUGAGGAUCACCCAUGUGACAUUAAAUAAAUAAAAUAAAGUGUAGAAGGCUCAAAAA [65%, Moding Exclusion3-cac2, 23]”, the “apparent KD of MS2 coat protein” value was 38.1 nM in the series with MS2 coat protein [1] and 136 nM in the series on MS2 coat protein [2].

On to “AAAAAGGCAGGAUAUACAUGAGGAUCACCCAUGUGAAAAAAAAAAAAAAAAAAAAAGUGUAGAAGGGUCAAAAA [Exclusion 3 - Omei 2]”, for which the “apparent KD of MS2 coat protein” value in the series on MS2 coat protein [1] is 51.7 nM; with MS2 coat protein [2], 51.4 nM.

“AAAAAGGCAGGAUAUACGAGUCAAAGAAAAGACAAAAAGGGACAUGAGGAUCACCCAUGUAGAAGGGCCAAAAA [Fiskers exclusion D2 62% 4]”: the entries for the “apparent KD of MS2 coat protein” value in the series on MS2 coat protein [1] and in the series with MS2 coat protein [2] were 51.6 nM and 193 nM, respectively.

On to “AAAAAGGGAGGAUAUACAGGAGGUAAGGAAAAAAAAAAAAAACAUGAGGAUCACCCAUGUAGAAGGCUUAAAAA [Ecls2-IV]”, for which the “apparent KD of MS2 coat protein” value in the series with MS2 coat protein [1] came to 30.3 nM; in the series on MS2 coat protein [2] it was 22 nM.

For “AAAAAGGGAGGAUAUACAUGAGGAUCACCCAUGUAAAAAAACGCGGGAGGGAGGGAAGGUAGAAGGCCCAAAAA [Excls3-IV]”, the “apparent KD of MS2 coat protein” value amounted to 20.3 nM with MS2 coat protein [1] and 23 nM in the series with MS2 coat protein [2].

With “AAAAAGGUAGGAUAUACAUGAGGAUCACCCAUGUGAAAGAAAAAUAAGAAAAGAAAGAGUAGAAGGACCAAAAA [JL JSci Mod]”, the “apparent KD of MS2 coat protein” value with MS2 coat protein [1] stood at 31 nM; in the series on MS2 coat protein [2], 30.6 nM.

As to “AAAAAGUAAGGAUAUAGCAAAGGUCACGAAAGUGACAAAGGCUAGAAGGUACAUGAGGAUCACCCAUGUCCAAA [Fiskers Exclusion 4 D2 63% 3]”, the “apparent KD of MS2 coat protein” value came out at 19.9 nM in the series with MS2 coat protein [1] and 17.7 nM with MS2 coat protein [2].

As for “AAAAAGUCAGGAUAUACGUACAUGUCAAAAGACGUGAAGGGACAUGAGGAUCACCCAUGUAGAAGGGACAAGAA [JL Stem Breaker 21]”, the entries for the “apparent KD of MS2 coat protein” value in the series with MS2 coat protein [1] and in the series with MS2 coat protein [2] were 106 nM and 49.6 nM, respectively.

Turning to “AAAAAGUCAGGAUAUAUAGGAAAAAUAAAAAAAAUAAAACUAUAGAAGGGACAUGAGGAUCACCCAUGUUAAAA [Ex 4 May 15]”, the results for the “apparent KD of MS2 coat protein” value in the series with MS2 coat protein [1] and in the series on MS2 coat protein [2] were 45.4 nM and 22.9 nM, respectively.

Turning to “AAAAAGUCAGGAUAUAUCAAAAAAAAAGAAAAAAAAAAAAGAUAGAAGGGACAUGAGGAUCACCCAUGUAAAAA [water's exclusion 4 last]”, the “apparent KD of MS2 coat protein” value with MS2 coat protein [1] stood at 74.3 nM; with MS2 coat protein [2], 34.2 nM.

For the sequence “AAAAAGUCAGGAUAUGCGAAGGCGUCUGAUAGACGAGGCUAGCAGAAGGGACAUGAGGAUCACCCAUGUGAAGA [Mat - Exclusion 4 - Eli mod - D84]”, the “apparent KD of MS2 coat protein” value worked out at 49.8 nM with MS2 coat protein [1] and 97.5 nM in the series with MS2 coat protein [2].

For “AAAAAGUCAGGAUAUGUCAAAGGUCACGAAAGUGACAAAGGACAGAAGGGACAUGAGGAUCACCCAUGUAGGAA [Fiskers Exclusion 4D1 65% - Late G segment 2]”, the “apparent KD of MS2 coat protein” value amounted to 55.5 nM with MS2 coat protein [1] and 68.5 nM in the series with MS2 coat protein [2].

As for “AAAAAGUCAGGAUAUGUGAAAAAAAAAAAAAAAAAAAAAAAACAGAAGGGACAUGAGGAUCACCCAUGUAAAAA [water's exclusion 4 2nd]”, the “apparent KD of MS2 coat protein” value turned out to be 60 nM with MS2 coat protein [1] and 46.4 nM with MS2 coat protein [2].

“AAAAAGUCAGGAUAUUCGGAAGGGAAAGCGCAAACCCAACCGAAGAAGGGACAUGAGGAUCACCCAUGUGGAAA [Ecls4-III 65% - Late G segment 1]”: the “apparent KD of MS2 coat protein” value came to 79 nM in the series on MS2 coat protein [1] and 88.9 nM in the series on MS2 coat protein [2].

As to “AAAAAGUGAGGAUAUACGCUGAAGAGUAGACACAACCAGGCGUAGAAGGCACAUGAGGAUCACCCAUGUACAAA [Ex4 Malc#9]”, the entries for the “apparent KD of MS2 coat protein” value with MS2 coat protein [1] and with MS2 coat protein [2] were 28.6 nM and 26.1 nM, respectively.
